From article PMC7506551 (2020)

Biological target: SMARCB1 (aa 169–385) (human, UniProt Q12824 169-385)
Assay: ITC; second site (Kd2, two-site model)

Sequence of SMARCB1 (aa 169–385) (Q12824 169-385): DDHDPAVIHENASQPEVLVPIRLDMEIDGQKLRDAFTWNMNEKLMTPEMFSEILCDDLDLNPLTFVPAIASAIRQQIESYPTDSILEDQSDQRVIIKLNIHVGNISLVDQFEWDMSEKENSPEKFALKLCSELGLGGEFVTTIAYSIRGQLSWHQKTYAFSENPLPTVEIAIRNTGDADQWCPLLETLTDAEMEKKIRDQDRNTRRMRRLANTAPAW

- Kd: 1.96 nM
B1: SMARCC2 (aa 325–518) (domain or fragment)
chain: TKSKRGHREEEQEDLTKDMDEPSPVPNVEEVTLPKTVNTKKDSESAPVKGGTMTDLDEQEDESMETTGKDEDENSTGNKGEQTKNPDLHEDNVTEQTHHIIIPSYAAWFDYNSVHAIERRALPEFFNGKNKSKTPEIYLAYRNFMIDTYRLNPQEYLTSTACRRNLAGDVCAIMRVHAFLEQWGLINYQVDAES
